# From PMC3045595 (Nucleic Acids Research, 2010)
# Target: the molecule itself
# Assay: SEC
protein,measurement,value
"human TYW5 (tRNA yW-synthesizing enzyme 5), wild type (enzyme) MAGQHLPVPRLEGVSREQFMQHLYPQRKPLVLEGIDLGPCTSKWTVDYLSQVGGKKEVKIHVAAVAQMDFISKNFVYRTLPFDQLVQRAAEEKHKEFFVSEDEKYYLRSLGEDPRKDVADIRKQFPLLKGDIKFPEFFKEEQFFSSVFRISSPGLQLWTHYDVMDNLLIQVTGKKRVVLFSPRDAQYLYLKGTKSEVLNIDNPDLAKYPLFSKARRYECSLEAGDVLFIPALWFHNVISEEFGVGVNIFWKHLPSECYDKTDTYGNKDPTAASRAAQILDRALKTLAELPEEYRDFYARRMVLHIQDKAYSKNSE",stoichiometry N,2
